# Test results as given in patent US20020197616A1 (REGENTS OF THE UNIVERSITY OF MICHIGAN, published 2002).
# Target: T1, Nod2 (wild-type, HA-tagged) (human, UniProt Q9HC29 1-1040)
# T1 construct: Expressed in HEK293T cells and tested in cell extracts by co-immunoprecipitation; also called Nod2a; wt Nod2; not shown: HA tag; the plasmid is named both pcDNA3-Nod2-HA and pcDNA3-HA-Nod2, so the end that carries the ta
# Assay: co-immunoprecipitation, HEK293T extracts
# Description: Proteins co-immunoprecipitated with anti-HA antibody were detected with anti-Flag antibody. […] Proteins in total lysate were detected by anti-Flag and anti-HA monoclonal antibody, respectively. […]
# T1 sequence (Q9HC29 whole entry): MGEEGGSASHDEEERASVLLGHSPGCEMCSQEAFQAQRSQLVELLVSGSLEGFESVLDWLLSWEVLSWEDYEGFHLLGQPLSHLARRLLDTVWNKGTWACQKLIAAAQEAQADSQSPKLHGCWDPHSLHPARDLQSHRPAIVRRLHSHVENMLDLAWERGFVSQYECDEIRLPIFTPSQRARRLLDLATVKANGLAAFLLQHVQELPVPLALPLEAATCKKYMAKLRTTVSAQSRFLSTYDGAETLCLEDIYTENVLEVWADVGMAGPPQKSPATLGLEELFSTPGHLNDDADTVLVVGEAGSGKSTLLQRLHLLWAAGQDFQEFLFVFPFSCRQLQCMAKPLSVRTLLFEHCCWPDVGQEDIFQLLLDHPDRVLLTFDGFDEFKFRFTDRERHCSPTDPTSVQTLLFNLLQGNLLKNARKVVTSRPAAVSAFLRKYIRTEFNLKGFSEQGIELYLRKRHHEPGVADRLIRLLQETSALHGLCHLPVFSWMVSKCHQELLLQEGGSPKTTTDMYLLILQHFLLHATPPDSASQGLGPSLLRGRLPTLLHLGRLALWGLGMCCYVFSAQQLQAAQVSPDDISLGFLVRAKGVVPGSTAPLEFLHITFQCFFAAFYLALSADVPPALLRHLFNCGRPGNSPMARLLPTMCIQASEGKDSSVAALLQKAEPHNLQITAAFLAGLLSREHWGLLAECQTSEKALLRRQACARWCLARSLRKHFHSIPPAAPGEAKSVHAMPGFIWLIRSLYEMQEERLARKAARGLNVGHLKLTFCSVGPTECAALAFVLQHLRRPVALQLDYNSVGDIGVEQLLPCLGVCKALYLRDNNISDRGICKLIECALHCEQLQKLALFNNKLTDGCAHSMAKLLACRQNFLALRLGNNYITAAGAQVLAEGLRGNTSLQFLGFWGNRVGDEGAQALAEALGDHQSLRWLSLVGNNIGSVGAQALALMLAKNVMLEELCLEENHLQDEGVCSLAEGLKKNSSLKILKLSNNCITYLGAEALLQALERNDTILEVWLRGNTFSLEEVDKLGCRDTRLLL
row,binding result,Binder
1,no binding,"RIP (enzyme, UniProt Q13546 1-671, looked up, Construct and tag not described) MQPDMSLNVIKMKSSDFLESAELDSGGFGKVSLCFHRTQGLMIMKTVYKGPNCIEHNEALLEEAKMMNRLRHSRVVKLLGVIIEEGKYSLVMEYMEKGNLMHVLKAEMSTPLSVKGRIILEIIEGMCYLHGKGVIHKDLKPENILVDNDFHIKIADLGLASFKMWSKLNNEEHNELREVDGTAKKNGGTLYYMAPEHLNDVNAKPTEKSDVYSFAVVLWAIFANKEPYENAICEQQLIMCIKSGNRPDVDDITEYCPREIISLMKLCWEANPEARPTFPGIEEKFRPFYLSQLEESVEEDVKSLKKEYSNENAVVKRMQSLQLDCVAVPSSRSNSATEQPGSLHSSQGLGMGPVEESWFAPSLEHPQEENEPSLQSKLQDEANYHLYGSRMDRQTKQQPRQNVAYNREEERRRRVSHDPFAQQRPYENFQNTEGKGTAYSSAASHGNAVHQPSGLTSQPQVLYQNNGLYSSHGFGTRPLDPGTAGPRVWYRPIPSHMPSLHNIPVPETNYLGNTPTMPFSSLPPTDESIKYTIYNSTGIQIGAYNYMEIGGTSSSLLDSTNTNFKEEPAAKYQAIFDNTTSLTDKHLDPIRENLGKHWKNCARKLGFTQSQIDEIDHDYERDGLKEKVYQMLQKWVMREGIKGATVGKLAQALHQCSRIDLLSSLIYVSQN"
2,no binding,"Ced-4 (other, UniProt P30429 1-549, looked up, Construct and tag not described) MLCEIECRALSTAHTRLIHDFEPRDALTYLEGKNIFTEDHSELISKMSTRLERIANFLRIYRRQASELGPLIDFFNYNNQSHLADFLEDYIDFAINEPDLLRPVVIAPQFSRQMLDRKLLLGNVPKQMTCYIREYHVDRVIKKLDEMCDLDSFFLFLHGRAGSGKSVIASQALSKSDQLIGINYDSIVWLKDSGTAPKSTFDLFTDILLMLKSEDDLLNFPSVEHVTSVVLKRMICNALIDRPNTLFVFDDVVQEETIRWAQELRLRCLVTTRDVEISNAASQTCEFIEVTSLEIDECYDFLEAYGMPMPVGEKEEDVLNKTIELSSGNPATLMMFFKSCEPKTFEKMAQLNNKLESRGLVGVECITPYSYKSLAMALQRCVEVLSDEDRSALAFAVVMPPGVDIPVKLWSCVIPVDICSNEEEQLDDEVADRLKRLSKRGALLSGKRMPVLTFKIDHIIHMFLKHVVDAQTIANGISILEQRLLEIGNNNVSVPERHIPSHFQKFRRSSASEMYPKTTEETVIRPEDFPKFMQLHQKFYDSLKNFACC"
3,no binding,"TRAF-1 (other, UniProt Q13077 1-416, looked up, Construct and tag not described) MASSSGSSPRPAPDENEFPFGCPPTVCQDPKEPRALCCAGCLSENPRNGEDQICPKCRGEDLQSISPGSRLRTQEKAHPEVAEAGIGCPFAGVGCSFKGSPQSVQEHEVTSQTSHLNLLLGFMKQWKARLGCGLESGPMALEQNLSDLQLQAAVEVAGDLEVDCYRAPCSESQEELALQHFMKEKLLAELEGKLRVFENIVAVLNKEVEASHLALATSIHQSQLDRERILSLEQRVVELQQTLAQKDQALGKLEQSLRLMEEASFDGTFLWKITNVTRRCHESACGRTVSLFSPAFYTAKYGYKLCLRLYLNGDGTGKRTHLSLFIVIMRGEYDALLPWPFRNKVTFMLLDQNNREHAIDAFRPDLSSASFQRPQSETNVASGCPLFFPLSKLQSPKHAYVKDDTMFLKCIVETST"
4,no binding,"TRAF-2 (other, UniProt Q12933 1-501, looked up, Construct and tag not described) MAAASVTPPGSLELLQPGFSKTLLGTKLEAKYLCSACRNVLRRPFQAQCGHRYCSFCLASILSSGPQNCAACVHEGIYEEGISILESSSAFPDNAARREVESLPAVCPSDGCTWKGTLKEYESCHEGRCPLMLTECPACKGLVRLGEKERHLEHECPERSLSCRHCRAPCCGADVKAHHEVCPKFPLTCDGCGKKKIPREKFQDHVKTCGKCRVPCRFHAIGCLETVEGEKQQEHEVQWLREHLAMLLSSVLEAKPLLGDQSHAGSELLQRCESLEKKTATFENIVCVLNREVERVAMTAEACSRQHRLDQDKIEALSSKVQQLERSIGLKDLAMADLEQKVLEMEASTYDGVFIWKISDFARKRQEAVAGRIPAIFSPAFYTSRYGYKMCLRIYLNGDGTGRGTHLSLFFVVMKGPNDALLRWPFNQKVTLMLLDQNNREHVIDAFRPDVTSSSFQRPVNDMNIASGCPLFCPVSKMEAKNSYVRDDAIFIKAIVDLTGL"
